Target: T1, mouse VISTA-Fc (mouse) (UniProt Q9D659)
T1 sequence (looked up): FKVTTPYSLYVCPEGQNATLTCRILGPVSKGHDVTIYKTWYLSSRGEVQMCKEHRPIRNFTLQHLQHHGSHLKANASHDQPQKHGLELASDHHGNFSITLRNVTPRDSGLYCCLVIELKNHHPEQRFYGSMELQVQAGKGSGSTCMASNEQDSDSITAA
Assay: monoclonal scFv phage ELISA, plate coated with 1 ug/ml VISTA-Fc, anti-M13-HRP

B1: 1A12 monoclonal scFv phage (scFv, V domains shown)
VH: QMQLVESGGGLVEPGRSLRLSCTTSGFSFHDYTMYWVRQVPGKGLEWVSLISWDGTITFYADPVRGRFTISRDNSKNSLYLQMNSLRAEDTAVYYCAKEDRYDYYSGAFDIWGQGTVVTVSS
VL: QSALTQPRSVSGSPGQSVTISCTGTSSDVGGYDYVSWYQQHPGKAPKLILNDVNKRPSGVPDRFSGSKSGNTASLTISGLQPDDEADYYCSSFAGSNTLRVFGGGTKLTVLG
OD: 0.08 OD

B2: 3C5 monoclonal scFv phage (scFv, V domains shown)
VH: QVQLVQSGAEVKKPGASVKLSCKASGYTFSSYWMHWVRQAPGQRLEWMGEINPGNGHTNYNEKFKSRVTITVDKSASTAYMELSSLRSEDTAVYYCAKDIAYYDFWSGDAFDLWGQGTMVTVSS
VL: SYELTQPLSVSVSPGQTASITCSGDKLGNKYASWYQQKPGQSPVLVIYQDNKRPSGIPERFSGSNSGNTATLTISGTQATDEADYYCQTWDRSTGVFGTGTKVTVLG
OD: 0.106 OD

Reference: patent US20200407449A1
